Experimental findings from the domain aggregation screens of Martell et al. (2025) are described below.

The data set in a line: soluble fraction after stress (log2 fold change); higher = more stays soluble; pooled small domains, quantitative proteomics. The following applies: stress: 50 degC. In outline: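 After stress at 50°C, the amount of each protein still soluble was measured. This was done on pooled custom libraries of small protein domains, using high-throughput quantitative proteomics. The figure given is a base-two log fold change and stands for aggregation propensity, with higher values meaning more protein stays in solution.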
For the sequence “HMPQKIVIQKGVVIKKRERSDAWQIYITVKGKKPIRKSANTDNVEKAKQMALTLFAEKNYKVENNLPIQ”, the “soluble fraction (log2)” value was -1.18. Then “HMSQSDLASAIGARVTIRLREASGGFRDIVGVLQRFGSGYGELINSKGEALTFSESEIAIWREVKA”, with -0.358; and “HMNPEDLSGVRKAAILLLTMDDEVTKDVMKGLDEEEIEAIGKEITNLKLIPDHVVHRVQEEFMTKVSK”, with 0.0913; and “HMEDEVYFVPSPASRFNPWIAALASRRVPYRVEYDGAERRIAVPAGYAEKAGEELAAYERINHAWPR”, with -0.271. Then “HMYDDLEPFDANGRLRWSDKELILAFGRHRGVTLQTLELNDPGYLRWLLSGNGPLEQQDRKRLEDILES”, with -1.27; and “HMDPVQLEVIKKLNLLNAQKPKDIYALRDVLSEMFPQSDIRLLLKELLDKGYIYWNGHEVIYSHEMF”, with -0.217; and “HMTRYEQLAAQIRQQIEDNIWQSGDRLPSLRDTVKQSGLSLMTVLQSYQLLESQGWITARPQSGYYVAHR”, with 0.348. The result for “HMADTIEVVVQVNGKVRAKISTSPEVFADSTKLQELALADANVQKFIAGQTIRKVIIPKGTKLLNIV” reads -0.227; that for “HMGVEVPRGDGSTVVRVRAGSSLADFAERIGADPAALITVLFRMGEMATVNQSLDEDTFKLLGAELGYDVQ”, -0.691. On to “HMSGRVPTADDIAVGMKVYVPRLGGTGTVVTEPVRDKVVIQVGSLRLHAEVAELLLPDEHGRIQVPR”, for which the “soluble fraction (log2)” value worked out at 0.00655. Then “HMRSDSEIKEDVLDELMWQPNIDETQIGVIVEKGVVTLTGFVDAYAKKTAALDAVKNVKGVKAVANDIEV”, with 0.131. Then “HMAEATATVTASEMVVRSGPSSSYSVLGSLEKGTVVTVLAASDGIAKISYKGNTGYARIVDMELNSA”, with -0.0414. For “HMPNLAAAIGARVTIRLREASGGFRDIVGTLQRFGDGVNELLNSKGQIISFSEDEIAIWREIK”, the “soluble fraction (log2)” value was -0.816. The result for “HMSAVNLNDDEKAVYKSIKSGIRSLDELSLRTGMKIYELMAITVSLEMKGLVTKSPDGTLDAT” reads 0.147; that for “HMASFTDAQALEVKDLYPDWSKIPEGTHLEAGQRVRYNGNLYKVRTGQAHDKQSTWTPTDAASLFEAID”, 0.116. The result for “HMSVTPLLDATEKDKTKYRDLWLVAVVKNGVNYARKYKFGYVYAWLYRHDRDWLLQVNNQHKIPNIT” reads 0.127; that for “HMKPSKYTLAIDSIPVHVTRKQMKSIRLRVTPLGEVRVSAPYGVKDSEIVEMVRSRKLWIESQQRA”, -0.992; that for “HMGKAPREVQVGELLRVPALNAEGEVLRRDGESVELSIQGKKLRLPLAQLEAFSPRRFARRGEGKVRGRIE”, 0.432. The result for “HMSSPPNPQLAKRYISYSVDDIARLFGIHRHTVREWIKRGLPVIDQQRPLLVQGADLAEFLRKRRA” reads -0.719; that for “HMAMDITLPLAEVRRQSLEQIERQYLNELMSKHLGRINRAAEAAGITTRQLHKLLTKYSIRKEDFK”, -0.673; that for “HMSKPVVWIVGDSTVSAFTDNYYYPRYGWGTQIDKYLDGTFEVKNIALSGRSSTSYTADKEYGELIAG”, 0.0416. Regarding “HMQAATQVNIVGLFSNKAVVIINGGKPKTLSVGQTSEGVKLLAADSQTATLQIEGKTQQLGMGQAASVGG”, the “soluble fraction (log2)” value was found to be 0.134. Consider “HMPSTVSVPDVAGSSLSEAKTTIKSSGLKVGTVHKVSSDTVESGYVIKTSPTAGSSKKEGSSIDIYVSKG”, for which the “soluble fraction (log2)” value amounted to 0.432. The result for “HMRNPLYAQVADYVMQQIAAGTYRPHQAIPTEWQLAKKLEVSQGTVRKGLDELVFKQILYRQQGVGTFVAD” reads -1.19; that for “HMRVVGRNHYDDADLAHIRSVIQLEARPLNVSRIARTLANEYPKHTYWSYLSFLQKNLRDRPDLF”, -1.83. With “HMPVTKSARQSRIGELIAREPVRSQSELAARLADDGIVVSQGTLSKDLLELGAVRVRTSSGELAYALL”, the “soluble fraction (log2)” value is -0.18. The result for “HMKSLDDVISKFRPTGSENKIDFRKRVISEIHAQGFFKIKGSVNHVAKALGVTRYTVYNYLDKLND” reads -3.23; that for “HMEKLNERLLYLRKNANLTQQQLADKLHISNKTISQWETGRTLPDIVMLVRLAEIYDMKLDELLNQ”, -0.29. The result for “HMVAMLDASYRGVMQTISTLLAQGNTERAYDEAVNARGQMSKQQWNNLANLIWERTGQKIDSGVSYK” reads 0.139; that for “HMQNEIQQLAIDLIARAHKSGASDIHIVDTGTYTRIKFRVLGLLREDSQMEAETGRQMISTIYGILG”, -0.135. The result for “HMREKMKGKILDYNFQESRGIISADDGNRYSFENSQWKGTQSPKVNQIVDFEIDGQNAKDIYLDK” reads 0.162; that for “HMSTQYKTGHYKTTDALNLRASYSTSSNVLLTIPKGKTIVVTRVHNNEWGQVEYNGKTGWIYLEYTAYTES”, 0.0697; that for “HMSAGISVADVTNRTYDEGYNTLTAQHLLVNKVYEANETIPLDTIIRTDPVAGTKVPDNTSITVYVSSGK”, 0.000832. For the sequence “HMTDAELDLLTPREQEVLQLIARGYLYKEIARRLGISVKTVEAHASSVLRKLQLSTRHELSHWAAQRH”, the “soluble fraction (log2)” value was -0.258.
